Test results taken from the supplement of paper PMC9170038.

Legend:
[1] = system: MS2 coat protein; experiment: apparent KD of MS2 coat protein, switch ON state; designed switch direction (-1 OFF switch, 1 ON switch): -1; higher = weaker reporter binding; settings: FMN input: 0 or 200 uM; Eterna round: R93 (includes R88 designs)
Procedure, shortened: (§1)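 Titration buffer: 100 mM Tris-HCl pH 7.5, 80 mM KCl, 4 mM MgCl2, without or with constant ligand. Designed RNA switches transcribed on-chip from Illumina sequencing clusters received SNAP-549-labelled MS2 coat protein in twofold steps from 0.7 or 1.5 nM to 3 µM. Apparent KD is the median per design of fits to normalised cluster binding curves.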

[2] = system: MS2 coat protein; experiment: apparent KD of MS2 coat protein, switch OFF state (with FMN for OFF switches, without FMN for ON switches); designed switch direction (-1 OFF switch, 1 ON switch): -1; higher = weaker reporter binding; settings: FMN input: 0 or 200 uM; Eterna round: R93 (includes R88 designs)
Procedure, shortened: as §1

Sequence	apparent KD of MS2 coat protein [1] [nM]	apparent KD of MS2 coat protein [2] [nM]
CAGUACUGAGGAUAUACAUGAGGAUCACCCAUGUAUCCUAGCUAGGAAACUAGCAAAAGUAGAAGGCAGUACUG [Ex3: 819]	13.5	118
GAAAGGGCAGGAUAUGCAGAGAGAGAGAGAGAGAGAAAAAAACAUGAGGAUCACCCAUGUAGAAGGGCCGAAAG [salish99-ex2-06]	38.5	52.4
AAGAAACAUGAGGAUCACCCAUGUGAGGAUAUGCAAAAGAAAAGAAAAGAAAGAAGAAGCAGAAGGCACAAAGG [Neferkahor]	49.1	138
AAAAAGGGAGGAUAUACAUGAGGAUCACCCAUGUAUCAGACGAAAAAGAGUCUGAAGUGUAGAAGGCCCAAAAA [Exclusion3-cac2]	20	25.6
AGCUGGAGAGGAUAUACGUAGGAAAAAAAAGUCUGAUCCCUACAUGAGGAUCACCCAUGUAGAAGGCUCUGGCA [Ex2 Design 161: Sub-opt 25]	63.5	63.6
AAAAAGUCAGGAUAUACAGGAGUGCGAAAGCACAAAAAAAAACAUGAGGAUCACCCAUGUAGAAGGGACAAGAA [Married to this design, 61% 6]	52.7	33.1
UCGUGGUCAGGAUAUACAUGAGGAUCACCCAUGUAAAAGAACAUAAAGGAGAGACGACGUAGAAGGGACAAAUA [Ralasoena]	46.3	51.5
AAGAACACAGGAUAUACAUGAGGAUCACCCAUGUAAAAGAAAGAAAGGGAAAAGAAAAGUAGAAGGGUGAAGAA [Aakheperre Pasebakhenniut I]	40	72.6
AACUGACAUGAGGAUCACCCAUGUCAGGAUAUGACUUCAAAAAAAAAAAAAAAUGAUGUCAGAAGGGACAUGAA [Design 62: Sub-opt L]	24.4	19.3
AUAGGCCUAGGAUAUACAUGAGGAUCACCCAUGUUAAUACUUCAAUCAAGAUAAAAGUGUAGAAGGAGGAAUAA [JR_Exc003_Sub306]	26.7	30.9
AAAAAGUGAGGAUAUACAUGAGGAUCACCCAUGUGAAAUCGGAAAAAAAAGGAAAAAAGUAGAAGGCACAAAAA [Mat - Mod of Eli]	17.1	19.3
AAGAAGUAAGGAUAUGCUGCUCGUCACAAAAGUGAUGAGUAGCAGAAGGUACAUGAGGAUCACCCAUGUAAAGA [JL eternac mod 3]	26	20.3
AAAAGUAGAGGAUAUACAUGAGGAUCACCCAUGUAGAAAGGAAGUGUAUAUAUGGCAUGUAGAAGGCUACAUGA [Banishment 8 - Jieux - Exclusion 3]	27.4	34.2
AACUGUACAGGAUAUACAUGAGGAUCACCCAUGUGAGAAUUAAGUGGCGUACCACAAAGUAGAAGGGUACAGGA [Mat - Exclusion 3 - JL mod - D15]	36.4	192
AAGCUGGUAGGAUAUACUAGGGCAACUAAUGAGCCGAUAGGACAUGAGGAUCACCCAUGUAGAAGGGCCAGAAA [Mat - Exclusion 2 - JL mod - D64]	74.4	125
AAGUAGGUAGGAUAUGCAUAGAUAUAUAUUCAUGUGGAACUACAUGAGGAUCACCCAUGUAGAAGGACCUAAUA [AJ 42]	18.1	17.1
AAUAAACAUGAGGAUCACCCAUGUGAGGAUAUGGUAUAAUUAGGACAGUAAUGAUAAACCAGAAGGCACAAAUA [JR_Exc001_Sub1103]	35.6	42.6
AGCUAGUCAGGAUAUACGAACAUGUCAAAAGACGUGAAGGGACAUGAGGAUCACCCAUGUAGAAGGGACUAGCG [salish99-ex2-14]	36	103
AAAGGGUCAGGAUAUCGAUUAAUAAUAAAAUAAAUAAAGAUCGAGAAGGGACAUGAGGAUCACCCAUGUAUAAA [May 77]	45.9	54.6
AACCAACAUGAGGAUCACCCAUGUCAGGAUAUGCAUACAACAUACAACAUACAUCAAAGCAGAAGGGACAAAAA [Amethyst 83]	26.1	24.1
CUCUAGUGAGGAUAUGCAAGAAAAGAAGAGAAAGAAAAGAAGCAGAAGGCACAUGAGGAUCACCCAUGUAAGAA [EteRNA is fun!]	32.4	71.8
AUAAAGCGAGGAUAUACAUGAGGAUCACCCAUGUAAAUAAAUAGGAGAGCCACAAUAAGUAGAAGGUGUAAUAA [JR_Exc003_Sub009]	62.6	73.3
AAUUCACAUGAGGAUCACCCAUGUAAGGAUAUCGAAAUAAAACUAAACAAAAAACAAACGAGAAGGUACAAAAA [Exclusion 1 design 6]	25	23.3

Sequence	apparent KD of MS2 coat protein [1] [nM]	apparent KD of MS2 coat protein [2] [nM]
AAAGGACGAGGAUAUACAUGAGGAUCACCCAUGUAAAAAACAUAAAAAAAGAAAUUAUGUAGAAGGCGUCCAAA [69%, Moding Meechl, 4]	18.1	17.8
AAGGGACAUGAGGAUCACCCAUGUCAGGAUAUCGGAAAAGGAAAAAUAAAAAAGAAGACGAGAAGGGACACCAA [Mat - Exclusion 1 - Eli mod - D77]	38.4	32.4
AAGAAUGGAGGAUAUACAAAAUAAAAGAAAAGAAAGAAAGAACAUGAGGAUCACCCAUGUAGAAGGCCGAAGAA [Mersekhemre Ined]	14.6	37.3
AAAAAGGCAGGAUAUACGAACAUGUCAAAAGACGUGAAGGGACAUGAGGAUCACCCAUGUAGAAGGGUCAAGAA [JL Stem Breaker 18]	218	52.1
AAAAAACAUGAGGAUCACCCAUGUCAGGAUAUGCAGAAAAAGAAAAAAAGAAAAGAAAGUAGAAGGGACAAAAA [May 7]	31.2	31.8
AAAACACAUGAGGAUCACCCAUGUGAGGAUAUGCUAUGGAAAUAAAAAAUAAAACAUAGCAGAAGGCACAAAAA [Mat - Exclusion 1 - Eli mod - D40]	23.9	39
ACCGAUCGAGGAUAUACAUGAGGAUCACCCAUGUAAAGCAGAAGAAAGGCCUCAGGAUGUAGAAGGCGACGCAA [JR_Exc003_Sub405]	20.1	28.3
GGUUGGCGAGGAUAUACAUGAGGAUCACCCAUGUGAGAGAAAAAAGUGAGAUAGAAAAGUAGAAGGCGCUGACG [salish99-ex3-34]	58.8	286
AUGAGAGCAGGAUAUGCAGGUGUGCCGGAAGAAAGAAGAAGACAUGAGGAUCACCCAUGUAGAAGGGCUAGCCC [Bibidi]	30	18.5
CAGUACUGAGGAUAUACAUGAGGAUCACCCAUGUGUUCCAGCUAGGAAACUAGCAAAUGUAGAAGGCAGUACUG [Ex3: 827]	183	85.8
AGCAAGUCAGGAUAUACGAACAAGACAAAAGACGUGAAGGGACAUGAGGAUCACCCAUGUAGAAGGGACUAGCA [74%, Web mod - With 3 less U's]	59.8	61.7
AUAAACGGAGGAUAUACAUGAGGAUCACCCAUGUAAAUAAAUAAAAGUUCCUCAAUAAGUAGAAGGUCGAAUAA [JR_Exc003_Sub011]	12.8	13
AACAGUACAGGAUAUACAUGAGGAUCACCCAUGUGAUUAUCAAGUGCCGUAGCACGAAGUAGAAGGGUACUGGA	60.3	243
AAAAUGUCAGGAUAUGUAGCAAAAAGUGAUCCAAAAAAGCUACAGAAGGGACAUGAGGAUCACCCAUGUAAAAA [Ex4: 932]	244	406
AAAAAACAUGAGGAUCACCCAUGUGAGGAUAUGAUGCGAAUAAAGAAAGAAGAAAGCAUCAGAAGGCACAAAAA [58%, Disencluded 3, 2]	25.8	43.5
GAAGAACAUGAGGAUCACCCAUGUGAGGAUAUACAGAAGGGAAUAAAAUAACCAGAAAGUAGAAGGCACAAGAA [Ex 1 May 40]	35.1	45.7
AAAAAACAUGAGGAUCACCCAUGUAAGGAUAUGCUAAAAAACACGGAAAACGUGAAUAGCAGAAGGUACAAAAA [66%, Wbt, 30]	21.5	38.5
AAAAAACAUGAGGAUCACCCAUGUGAGGAUAUCCAAAAGUUAAAUAAAAAGACGAAAAGGAGAAGGCGCAAAAA [Mat - Mod of Eli]	64.9	39.4
AAGAAACAAGGAUAUACAAGGAAGAAAGAAAAGAAAAGAAAACAUGAGGAUCACCCAUGUAGAAGGUGUUAGAA [EteRNA is fun!]	40.3	27.9
AAAAAACAUGAGGAUCACCCAUGUGAGGAUAUCUAAAACAAAACAAAAACAAAACAAAGGAGAAGGUAUAUGAA [Amethyst 67]	19	29.2
AAAAAGUCAGGAUAUACGAAAGUGCGAAAGCACAAAAGGAAACAUGAGGAUCACCCAUGUAGAAGGGACAAGAA [Married to this design, 61% 1]	45.4	32.8
GGGUACGCAGGAUAUACAUGAAAAAAAAAAAAAAAAAAAAAACAUGAGGAUCACCCAUGUAGAAGGGCGUAUCC [hsl_exclusion2]	92.5	314
